Experimental findings from paper PMC11344848, “Proximity-driven site-specific cyclization of phage-displayed peptides” (Nature Communications, 2024) are described below.

This assay concerns the target T1, streptavidin (UniProt P22629 25-183).
T1 construct: streptavidin; Plate-coated in the ELISA; covalently immobilised by amine coupling to a CM5 chip in SPR; Commercial streptavidin is often a truncated core form; source: bought: Pierce streptavidin-coated 96 well plate (Thermo Fisher Scientific) for the phage ELISA
Kind of assay: SPR; Biacore 8K, 25 °C; streptavidin amine-coupled to a CM5 chip; peptides 4.1 – 9000 nM in HBS-EP+ pH 7.4 at 30 µL/min, 180 s association, 600 s dissociation. The following applies: both partners purified. (In general: SPR reads the build-up and loss of mass on a sensor chip optically.)

Positions of bridges follow the written chain, without caps; N, C: chain ends. No end group written: not given here. CCA = cyclopropenone-chloroacetamide linker between the two cysteines

T1 sequence (P22629 25-183): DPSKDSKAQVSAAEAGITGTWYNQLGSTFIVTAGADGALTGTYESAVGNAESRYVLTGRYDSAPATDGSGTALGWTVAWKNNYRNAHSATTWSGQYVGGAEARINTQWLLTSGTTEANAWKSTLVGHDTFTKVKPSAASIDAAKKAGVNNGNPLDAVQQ

What is called Kd is the constant that tells how readily two partners part at equilibrium. Read a low Kd as tighter binding. Molecule CPINIFHPPPDC (linker 1-12 via CCA) [synthetic peptide Str1-CCA] displayed a Kd of 340 nM.
